The target of test [1] is T1, AnkG 38–855 (AnkG MBD-AI-c protein; MBD + partial AI-c) (rat, UniProt O70511-1 38-855).
T1 chain: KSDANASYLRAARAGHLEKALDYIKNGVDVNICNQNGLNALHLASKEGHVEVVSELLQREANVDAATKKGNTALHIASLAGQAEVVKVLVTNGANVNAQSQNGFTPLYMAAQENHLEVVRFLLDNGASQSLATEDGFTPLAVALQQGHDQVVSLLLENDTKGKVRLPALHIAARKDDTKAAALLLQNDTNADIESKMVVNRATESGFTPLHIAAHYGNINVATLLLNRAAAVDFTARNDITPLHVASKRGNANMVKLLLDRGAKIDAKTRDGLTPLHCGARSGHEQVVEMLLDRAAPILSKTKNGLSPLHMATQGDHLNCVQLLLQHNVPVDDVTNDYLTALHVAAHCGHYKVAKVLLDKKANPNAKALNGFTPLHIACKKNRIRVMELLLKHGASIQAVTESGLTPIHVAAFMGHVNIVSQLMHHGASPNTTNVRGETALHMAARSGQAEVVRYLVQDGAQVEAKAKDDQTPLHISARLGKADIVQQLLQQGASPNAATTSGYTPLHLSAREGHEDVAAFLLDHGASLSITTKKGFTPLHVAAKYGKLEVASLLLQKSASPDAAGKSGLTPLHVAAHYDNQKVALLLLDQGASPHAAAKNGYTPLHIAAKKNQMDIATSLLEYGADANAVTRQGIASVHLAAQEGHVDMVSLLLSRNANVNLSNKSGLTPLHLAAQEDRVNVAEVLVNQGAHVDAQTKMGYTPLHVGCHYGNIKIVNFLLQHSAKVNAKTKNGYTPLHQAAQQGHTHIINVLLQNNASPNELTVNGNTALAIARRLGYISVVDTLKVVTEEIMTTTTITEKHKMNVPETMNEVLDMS
Briefly: ITC.

The target of test [2] is T2, AnkG 38–903 (MBD + AI-c + AI-b) (rat, UniProt O70511-1 38-903).
T2 chain: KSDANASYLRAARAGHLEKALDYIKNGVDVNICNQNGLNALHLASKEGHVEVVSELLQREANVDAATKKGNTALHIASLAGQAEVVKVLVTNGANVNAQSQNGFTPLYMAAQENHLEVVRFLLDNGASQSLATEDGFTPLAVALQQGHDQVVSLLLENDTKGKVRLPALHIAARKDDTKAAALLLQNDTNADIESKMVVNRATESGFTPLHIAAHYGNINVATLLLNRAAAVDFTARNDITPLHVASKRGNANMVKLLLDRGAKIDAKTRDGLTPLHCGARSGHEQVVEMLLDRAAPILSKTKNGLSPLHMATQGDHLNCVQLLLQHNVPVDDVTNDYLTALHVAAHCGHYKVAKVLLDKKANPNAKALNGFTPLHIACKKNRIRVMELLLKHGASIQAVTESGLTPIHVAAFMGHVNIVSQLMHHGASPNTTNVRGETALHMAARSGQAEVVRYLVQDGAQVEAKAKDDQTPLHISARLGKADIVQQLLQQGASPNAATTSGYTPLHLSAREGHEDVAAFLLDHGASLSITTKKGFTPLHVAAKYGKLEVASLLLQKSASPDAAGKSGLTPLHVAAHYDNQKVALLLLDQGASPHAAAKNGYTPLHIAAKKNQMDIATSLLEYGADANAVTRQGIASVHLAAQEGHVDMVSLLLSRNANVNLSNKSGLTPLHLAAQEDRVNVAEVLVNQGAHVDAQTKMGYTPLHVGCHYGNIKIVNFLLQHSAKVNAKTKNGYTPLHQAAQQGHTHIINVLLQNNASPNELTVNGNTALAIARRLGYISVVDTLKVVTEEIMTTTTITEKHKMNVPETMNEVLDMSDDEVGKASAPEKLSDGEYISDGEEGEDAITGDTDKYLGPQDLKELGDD
Briefly: ITC. Background: In ITC the heat of successive injections is recorded.

The target in test [3] is T3, AnkB 28–965 (MBD + AI-c + AI-b) (human, UniProt Q01484-2 28-965).
T3 chain: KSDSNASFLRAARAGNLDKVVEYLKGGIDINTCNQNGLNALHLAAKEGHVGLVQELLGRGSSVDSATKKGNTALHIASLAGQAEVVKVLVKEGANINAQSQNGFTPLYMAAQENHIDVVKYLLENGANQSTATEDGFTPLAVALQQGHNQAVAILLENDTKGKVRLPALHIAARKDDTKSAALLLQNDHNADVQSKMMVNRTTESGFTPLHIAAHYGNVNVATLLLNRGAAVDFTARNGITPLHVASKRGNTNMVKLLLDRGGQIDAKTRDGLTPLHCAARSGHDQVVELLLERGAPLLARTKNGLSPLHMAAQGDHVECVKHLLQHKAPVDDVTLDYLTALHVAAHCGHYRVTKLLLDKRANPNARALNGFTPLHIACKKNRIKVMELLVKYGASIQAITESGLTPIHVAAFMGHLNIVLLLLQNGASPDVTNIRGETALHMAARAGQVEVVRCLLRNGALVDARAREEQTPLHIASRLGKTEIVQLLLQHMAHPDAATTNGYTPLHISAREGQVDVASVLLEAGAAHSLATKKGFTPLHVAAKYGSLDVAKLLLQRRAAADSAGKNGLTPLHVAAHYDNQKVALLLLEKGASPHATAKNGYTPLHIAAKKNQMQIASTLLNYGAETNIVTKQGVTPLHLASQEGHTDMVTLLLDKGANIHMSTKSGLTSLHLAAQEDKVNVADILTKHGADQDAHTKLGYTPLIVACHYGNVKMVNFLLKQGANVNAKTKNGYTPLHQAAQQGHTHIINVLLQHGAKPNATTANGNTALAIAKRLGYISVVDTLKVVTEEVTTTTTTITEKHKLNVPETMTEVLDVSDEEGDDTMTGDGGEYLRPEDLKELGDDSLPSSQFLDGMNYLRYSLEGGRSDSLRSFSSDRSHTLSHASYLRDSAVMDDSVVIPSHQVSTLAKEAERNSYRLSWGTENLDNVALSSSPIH
Briefly: ITC.

Test [4] concerns the target T4, AnkB_MBD (AnkB ANK repeats only, aa 28–827) (human, UniProt Q01484-2 28-827).
T4 chain: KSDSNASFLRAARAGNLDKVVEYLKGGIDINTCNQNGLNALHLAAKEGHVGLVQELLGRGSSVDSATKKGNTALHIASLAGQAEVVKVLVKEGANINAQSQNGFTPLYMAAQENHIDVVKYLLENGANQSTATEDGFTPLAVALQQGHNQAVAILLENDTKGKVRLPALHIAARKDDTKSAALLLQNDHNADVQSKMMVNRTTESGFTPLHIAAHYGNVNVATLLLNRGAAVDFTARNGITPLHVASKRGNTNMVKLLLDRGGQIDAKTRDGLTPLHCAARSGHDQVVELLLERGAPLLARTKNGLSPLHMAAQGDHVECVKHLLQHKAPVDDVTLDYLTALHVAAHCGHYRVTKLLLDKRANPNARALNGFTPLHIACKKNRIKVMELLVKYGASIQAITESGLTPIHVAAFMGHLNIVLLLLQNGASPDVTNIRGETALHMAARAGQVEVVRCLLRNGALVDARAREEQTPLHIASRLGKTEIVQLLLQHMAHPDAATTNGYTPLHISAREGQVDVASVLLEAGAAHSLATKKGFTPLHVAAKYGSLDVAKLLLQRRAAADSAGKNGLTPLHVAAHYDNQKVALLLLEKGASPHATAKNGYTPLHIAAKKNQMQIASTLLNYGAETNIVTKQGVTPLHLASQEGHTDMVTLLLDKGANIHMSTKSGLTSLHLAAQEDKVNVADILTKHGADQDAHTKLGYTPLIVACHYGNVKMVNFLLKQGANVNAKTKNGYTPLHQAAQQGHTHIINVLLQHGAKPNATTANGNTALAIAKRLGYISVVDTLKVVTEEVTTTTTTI
The test can be described thus: ITC.

The target of test [5] is T5, AnkB 28–847 (MBD + partial AI-c) (human, UniProt Q01484-2 28-847).
T5 chain: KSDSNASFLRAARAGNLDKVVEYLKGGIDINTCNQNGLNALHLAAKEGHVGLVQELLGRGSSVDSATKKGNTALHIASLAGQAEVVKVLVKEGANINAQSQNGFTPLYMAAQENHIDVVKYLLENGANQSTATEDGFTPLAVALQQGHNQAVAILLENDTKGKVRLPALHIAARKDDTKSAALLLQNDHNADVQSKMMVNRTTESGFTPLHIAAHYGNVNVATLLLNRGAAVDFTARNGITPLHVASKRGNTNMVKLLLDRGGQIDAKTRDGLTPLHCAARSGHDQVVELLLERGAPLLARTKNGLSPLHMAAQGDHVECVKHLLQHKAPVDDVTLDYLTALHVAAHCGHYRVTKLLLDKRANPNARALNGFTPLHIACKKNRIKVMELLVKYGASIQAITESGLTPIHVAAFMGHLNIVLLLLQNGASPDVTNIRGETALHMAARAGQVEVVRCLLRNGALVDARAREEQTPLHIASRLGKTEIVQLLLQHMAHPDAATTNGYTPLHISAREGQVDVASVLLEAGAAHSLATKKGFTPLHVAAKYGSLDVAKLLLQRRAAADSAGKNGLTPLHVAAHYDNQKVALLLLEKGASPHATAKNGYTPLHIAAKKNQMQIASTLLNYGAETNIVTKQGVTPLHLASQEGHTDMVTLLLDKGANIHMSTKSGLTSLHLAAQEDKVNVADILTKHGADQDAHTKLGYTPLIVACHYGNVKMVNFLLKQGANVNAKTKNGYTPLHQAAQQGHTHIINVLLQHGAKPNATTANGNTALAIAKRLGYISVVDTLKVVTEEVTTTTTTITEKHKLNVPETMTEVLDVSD
The test can be described thus: ITC; AnkB 874-965.

The target in test [6] is T5, AnkB 28–847 (MBD + partial AI-c). Briefly: ITC.

A word on the Kd: it is the constant that tells how readily two partners part at equilibrium.

B1: Nav1.2 (aa 1035–1129) (domain or fragment)
chain: KALDEIKPLEDLNNKKDSCISNHTTIEIGKDLNYLKDGNGTTSGIGSSVEKYVVDESDYMSFINNPSLTVTVPIAVGESDFENLNTEEFSSESDM
With B1, the values for the Kd in test [1], in test [2] and in test [3] were 250 nM, 1500 nM and 5.8 µM, respectively.

B2: AnkB_AI-c Met839Gln (domain or fragment)
chain: TEKHKLNVPETQTEVLDVSDEEGDD
As for B2, the dissociation constant Kd in test [4] was 4.4 µM.

B3: AnkB AI-b fragment with residues 865 to 873 deleted (domain or fragment)
chain: SLPSSQFLDGMNYLRYSLEGGRS
As for B3, the Kd in test [5] was 17 µM.

B4: AnkB_AI-b Tyr886Ala (domain or fragment)
chain: EDLKELGDDSLPSSQFLDGMNALRYSLEGGRS
On to B4, for which, in test [6], the Kd was found to be 16 µM.

B5: AnkB_AI-c Asn834Lys (domain or fragment)
chain: TEKHKLKVPETMTEVLDVSDEEGDD
On to B5, for which the affinity in test [4], expressed as Kd, was 2.7 µM.

B6: AnkB_AI-c Leu843Gln (domain or fragment)
chain: TEKHKLNVPETMTEVQDVSDEEGDD
For the molecule B6, the Kd in test [4] is 3.9 µM.

B7: AnkG 861-903 (peptide)
chain: KASAPEKLSDGEYISDGEEGEDAITGDTDKYLGPQDLKELGDD
Turning to B7, the Kd in test [1] came to 1100 nM.

B8: AnkG_AI-b (aa 875–903) (domain or fragment)
chain: SDGEEGEDAITGDTDKYLGPQDLKELGDD
On to B8, for which the Kd in test [1] came to 3500 nM.

B9: AnkB 874-896 (peptide)
chain: SLPSSQFLDGMNYLRYSLEGGRS
Consider B9, for which the Kd in test [6] worked out at 13 µM.

B10: AnkB 828-896 (protein)
chain: TEKHKLNVPETMTEVLDVSDEEGDDTMTGDGGEYLRPEDLKELGDDSLPSSQFLDGMNYLRYSLEGGRS
B10: the Kd in test [6] came out at 2.7 µM.

The values are drawn from paper PMC5779224 (2017).
